According to PMC3418257:

Target: glutathione-S-transferase coupled human VDR fusion protein (human) (UniProt P11473)
Assay: pull-down; GSThVDR-Sepharose bead slurry as bait, [35S]-labelled in vitro translated RUNX2 as prey; PPI buffer (20 mM HEPES pH 7.9, 200 mM KCl, 1 mM EDTA, 4 mM MgCl2, 1 mM dithiothreitol, 0.1% Nonidet P-40, 10% glycerol), beads pre-blocked with BSA; with or without 1,25(OH)2D3; SDS-PAGE, autoradiography, densitometry

Chain of UniProt P11473 (P11473 whole entry, the tested form may be a part): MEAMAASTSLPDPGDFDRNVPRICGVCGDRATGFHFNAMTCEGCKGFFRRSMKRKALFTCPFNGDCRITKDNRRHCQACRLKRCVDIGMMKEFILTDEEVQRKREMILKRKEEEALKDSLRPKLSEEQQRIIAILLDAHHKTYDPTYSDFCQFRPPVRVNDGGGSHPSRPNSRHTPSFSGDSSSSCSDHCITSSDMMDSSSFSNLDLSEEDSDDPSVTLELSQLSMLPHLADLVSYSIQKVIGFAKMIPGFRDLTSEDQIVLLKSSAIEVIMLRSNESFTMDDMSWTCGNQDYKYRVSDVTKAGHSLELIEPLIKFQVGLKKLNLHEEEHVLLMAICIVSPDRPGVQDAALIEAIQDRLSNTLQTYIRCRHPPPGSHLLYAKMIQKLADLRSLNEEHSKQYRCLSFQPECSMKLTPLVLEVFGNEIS

percent of label recovered in pull down: 25%
Substance: human RUNX2 23Q wild type (natural protein)
